# Data taken from patent publication US20040152869A1 (SCHERING, published 2004).
# Ends that are not written are not given here.
# How the values were obtained:
# [1] = biological target: T1, 10-mer truncated form of APP28, YEVHH-QKLVF (SEQ ID NO: 8)
# T1 chain: YEVHHQKLVF
# [2] = biological target: T2, Ac-Tyr-Glu-Val-Ala-His-Gln-Lys-Leu-Val-Phe-NH2 (SEQ ID NO: 13)
# T2 chain: YEVAHQKLVF
# [3] = biological target: T3, proteolytic ADAM33 polypeptide (wild-type ADAM33 catalytic domain with Ser-Gly-His6 Tag, expressed in … (Homo sapiens (Human), UniProt Q9BZ11 204-409)); assay: cell-based or functional assay
# T3 sequence: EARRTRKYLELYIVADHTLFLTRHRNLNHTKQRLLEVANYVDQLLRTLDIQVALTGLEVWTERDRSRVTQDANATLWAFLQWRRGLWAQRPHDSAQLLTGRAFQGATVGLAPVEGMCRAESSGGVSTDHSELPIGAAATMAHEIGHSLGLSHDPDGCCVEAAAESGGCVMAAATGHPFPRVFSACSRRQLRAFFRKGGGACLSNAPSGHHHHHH
Binder,Relative Activity [3],also measured
"proteolytic ADAM33 polypeptide (wild-type ADAM33 catalytic domain with Ser-Gly-His6 Tag, expressed in Drosophila S2 cells) (protein) EARRTRKYLELYIVADHTLFLTRHRNLNHTKQRLLEVANYVDQLLRTLDIQVALTGLEVWTERDRSRVTQDANATLWAFLQWRRGLWAQRPHDSAQLLTGRAFQGATVGLAPVEGMCRAESSGGVSTDHSELPIGAAATMAHEIGHSLGLSHDPDGCCVEAAAESGGCVMAAATGHPFPRVFSACSRRQLRAFFRKGGGACLSNAPSGHHHHHH",,"cleavage [1]: identification of a 10-mer peptide substrate of a proteolytic ADAM33 polypeptide; kcat/Km [2]: kcat/Km=10,000 M-1s-1; rate of cleavage relative to the 10-mer truncated form of APP28 (SEQ ID NO: 8) [2]: at a rate seventeen times greater than the 10-mer truncated form of APP28 (SEQ ID NO: 8)"
YEVAHQKLA-OH [YEVAH*QKLA-OH (SEQ ID NO: 12)],0.9,
SGYEVAHQKLAFFA-OH [SGYEVAH*QKLAFFA-OH (SEQ ID NO: 11)],1.2,
Ac-VAHQKL-NH2 [Ac-VAH*QKL-NH2 (SEQ ID NO: 38)],0,
SGYEVAHQKLA-OH [SGYEVAH*QKLA-OH (SEQ ID NO: 9)],0.5,
Ac-YEVAHQKLVF-NH2 [Ac-Tyr-Glu-Val-Ala-His-Gln-Lys-Leu-Val-Phe-NH2 (SEQ ID NO: 13)],1,
EVAHQKLA-OH [EVAH*QKLA-OH (SEQ ID NO: 37)],0.1,
YEVAHQKLAF-OH [YEVAH*QKLAF-OH (SEQ ID NO: 7)],1.1,
